Here are results for 6 variants from publication PMC11077774.

First the molecules themselves.
B1: full-length GTP-bound Rab6a/Q72L with N-terminal GST tag [human] / BicD2-CTD (C-terminal cargo-binding domain of human Bicaudal D2, residues 715-804) [human] (parent)
chain 1: YENEKAMVTETMMKLRNELKALKEDAATFSSLRAMFATRCDEYITQLDEMQRQLAAAEDEKKTLNSLLRMAIQQKLALTQRLELLELDHE
chain 2: MSTGGDFGNPLRKFKLVFLGEQSVGKTSLITRFMYDSFDNTYQATIGIDFLSKTMYLEDRTVRLQLWDTAGLERFRSLIPSYIRDSTVAVVVYDITNVNSFQQTTKWIDDVRTERGSDVIIMLVGNKTDLADKRQVSIEEGERKAKELNVMFIETSAKAGYNVKQLFRRVAAALPGMESTQDRSREDMIDIKLEKPQEQPVSEGGCSC

The assay covers variants of B1. Nature of the assay: GST pull-down, SDS-PAGE band quantification. The following applies: with BicD2-CTD (C-terminal cargo-binding domain of human Bicaudal D2, residues 715-804) [human]; parent: 1; read off a plot.
For chain 2 W67A, the ratio to parent came out at 0.09.

Consider chain 2 T45A, for which the ratio to parent worked out at 0.01.

Take chain 2 S23A: the ratio to parent was 0.96.

Turning to chain 2 Q22A, the ratio to parent is 0.97.

As to chain 2 T69A, the ratio to parent is 0.07.

chain 2 F38A: the ratio to parent was 0.01.
